Experimental data as given in publication PMC9482650, “Quantitative fragmentomics allow affinity mapping of interactomes” (Nature Communications, 2022).

What was measured:
Experiment in all cases: holdup assay
Set-up in all cases: key: below the threshold = too weak to quantify, mostly under pKd 3.1 to 4
FRMPD1, Q5SYB0 = biological target: T1, FRMPD1, Q5SYB0
T1 sequence (Q5SYB0 52-145, limits assumed, looked up): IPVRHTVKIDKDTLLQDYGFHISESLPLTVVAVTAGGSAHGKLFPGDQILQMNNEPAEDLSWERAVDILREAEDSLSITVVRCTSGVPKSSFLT

MAGI2_5, Q86UL8 = biological target: MAGI2_5, Q86UL8
FRMPD3, Q5JV73 = biological target: FRMPD3, Q5JV73
DLG4_1, P78352 = biological target: DLG4_1, P78352
PCLO, Q9Y6V0 = biological target: T2, PCLO, Q9Y6V0
T2 sequence (Q9Y6V0 4491-4600, limits assumed, looked up): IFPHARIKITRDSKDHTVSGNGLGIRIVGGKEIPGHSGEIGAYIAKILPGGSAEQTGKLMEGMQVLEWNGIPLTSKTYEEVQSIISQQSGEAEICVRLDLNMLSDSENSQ

DLG1_2, Q12959 = biological target: DLG1_2, Q12959
ARHGEF12, Q9NZN5-2 = biological target: ARHGEF12, Q9NZN5-2
MPP7, Q5T2T1 = biological target: T3, MPP7, Q5T2T1
T3 sequence (Q5T2T1 134-230, limits assumed, looked up): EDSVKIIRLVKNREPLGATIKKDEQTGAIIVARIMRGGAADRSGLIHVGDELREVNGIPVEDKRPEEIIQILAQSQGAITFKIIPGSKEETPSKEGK

PARD3_3, Q8TEW0 = biological target: PARD3_3, Q8TEW0
TJP2_1, Q9UDY2 = biological target: TJP2_1, Q9UDY2
GORASP2, Q9H8Y8 = biological target: GORASP2, Q9H8Y8
RAPGEF6, Q8TEU7 = biological target: T4, RAPGEF6, Q8TEU7
T4 sequence (Q8TEU7 525-625, limits assumed, looked up): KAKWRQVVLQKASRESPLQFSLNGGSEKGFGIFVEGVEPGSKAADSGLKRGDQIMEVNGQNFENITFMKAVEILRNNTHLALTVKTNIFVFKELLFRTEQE

Inadl_5, Q8NI35 = biological target: Inadl_5, Q8NI35
Inadl_4, Q8NI35 = biological target: Inadl_4, Q8NI35
GRIP2_3, Q9C0E4 = biological target: GRIP2_3, Q9C0E4
TJP1_3, Q07157 = biological target: TJP1_3, Q07157
GRIP1_7, Q9Y3R0 = biological target: T5, GRIP1_7, Q9Y3R0
T5 sequence (Q9Y3R0 999-1096, limits assumed, looked up): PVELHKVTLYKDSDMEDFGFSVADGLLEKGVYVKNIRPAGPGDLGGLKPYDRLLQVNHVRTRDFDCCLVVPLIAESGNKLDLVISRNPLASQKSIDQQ

Inadl_9, Q8NI35 = biological target: Inadl_9, Q8NI35
GOPC, Q9HD26 = biological target: GOPC, Q9HD26
TJP1_2, Q07157 = biological target: TJP1_2, Q07157
LRRC7, Q96NW7 = biological target: T6, LRRC7, Q96NW7
T6 sequence (Q96NW7 1440-1537, limits assumed, looked up): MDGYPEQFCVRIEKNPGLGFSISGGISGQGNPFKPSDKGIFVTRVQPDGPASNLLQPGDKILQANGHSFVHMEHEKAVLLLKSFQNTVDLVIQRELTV

MAGI1_2, Q96QZ7 = biological target: MAGI1_2, Q96QZ7
MPDZ_5, O75970 = biological target: T7, MPDZ_5, O75970
T7 sequence (O75970 695-796, limits assumed, looked up): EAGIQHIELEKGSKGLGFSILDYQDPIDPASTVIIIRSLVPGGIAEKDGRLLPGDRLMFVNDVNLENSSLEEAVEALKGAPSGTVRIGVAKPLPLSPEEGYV

GRIP1_3, Q9Y3R0 = biological target: T8, GRIP1_3, Q9Y3R0
T8 sequence (Q9Y3R0 247-346, limits assumed, looked up): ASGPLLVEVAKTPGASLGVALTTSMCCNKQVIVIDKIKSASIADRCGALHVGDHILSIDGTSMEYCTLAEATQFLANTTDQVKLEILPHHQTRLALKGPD

Inadl_6, Q8NI35 = biological target: Inadl_6, Q8NI35
DLG3_2, Q92796 = biological target: T9, DLG3_2, Q92796
T9 sequence (Q92796 221-321, limits assumed, looked up): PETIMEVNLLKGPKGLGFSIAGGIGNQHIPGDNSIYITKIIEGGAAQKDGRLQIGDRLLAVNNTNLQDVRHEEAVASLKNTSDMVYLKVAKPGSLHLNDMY

DLG2_2, Q15700 = biological target: DLG2_2, Q15700
LAP2, Q96RT1 = biological target: LAP2, Q96RT1
[1] = plain residues with an end cap or a label only (N-terminal biotin on a linker: ttds)
[2] = plain residues with an end cap or a label only (N-terminal biotin on a linker: ahx)

DLG2_2, Q15700, sequence (Q15700 189-283): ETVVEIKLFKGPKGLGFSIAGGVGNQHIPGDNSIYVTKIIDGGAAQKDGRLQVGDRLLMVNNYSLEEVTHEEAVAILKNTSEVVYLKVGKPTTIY
MAGI1_2, Q96QZ7, sequence (Q96QZ7 456-580): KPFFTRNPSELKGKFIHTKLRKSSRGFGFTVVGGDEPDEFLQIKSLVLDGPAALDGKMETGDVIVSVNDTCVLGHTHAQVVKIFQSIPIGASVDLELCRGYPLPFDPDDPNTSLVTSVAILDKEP
GRIP2_3, Q9C0E4, sequence (Q9C0E4 238-339): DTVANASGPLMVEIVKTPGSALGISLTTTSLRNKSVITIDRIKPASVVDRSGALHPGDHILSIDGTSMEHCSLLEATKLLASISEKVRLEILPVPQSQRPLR
TJP2_1, Q9UDY2, sequence (Q9UDY2 24-128): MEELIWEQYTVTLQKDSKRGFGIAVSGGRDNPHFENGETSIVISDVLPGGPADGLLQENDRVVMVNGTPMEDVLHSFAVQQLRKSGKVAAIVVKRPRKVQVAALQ
Inadl_5, Q8NI35, sequence (Q8NI35 673-780): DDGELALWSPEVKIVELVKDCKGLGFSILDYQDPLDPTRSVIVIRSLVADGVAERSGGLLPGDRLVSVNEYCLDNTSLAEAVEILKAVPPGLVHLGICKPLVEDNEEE
PARD3_3, Q8TEW0, sequence (Q8TEW0 582-685): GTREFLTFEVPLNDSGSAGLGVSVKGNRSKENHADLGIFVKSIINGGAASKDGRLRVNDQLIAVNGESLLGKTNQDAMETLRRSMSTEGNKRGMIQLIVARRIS
Inadl_4, Q8NI35, sequence (Q8NI35 547-651): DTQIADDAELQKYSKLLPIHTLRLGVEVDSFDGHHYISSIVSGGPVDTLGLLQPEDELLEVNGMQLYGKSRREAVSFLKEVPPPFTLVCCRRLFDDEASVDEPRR
ARHGEF12, Q9NZN5-2, sequence (Q9NZN5 other isoform, or with tags, fused parts or gaps): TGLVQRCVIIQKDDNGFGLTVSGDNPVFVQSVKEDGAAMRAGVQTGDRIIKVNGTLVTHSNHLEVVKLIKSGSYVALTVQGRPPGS
DLG4_1, P78352, sequence (P78352 62-152): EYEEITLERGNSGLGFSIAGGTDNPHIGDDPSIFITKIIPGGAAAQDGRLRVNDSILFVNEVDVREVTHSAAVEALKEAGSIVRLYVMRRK
LAP2, Q96RT1, sequence (Q96RT1 other isoform, or with tags, fused parts or gaps): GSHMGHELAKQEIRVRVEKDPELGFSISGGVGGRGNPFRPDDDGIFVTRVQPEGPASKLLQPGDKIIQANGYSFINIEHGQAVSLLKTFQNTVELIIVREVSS
Inadl_6, Q8NI35, sequence (Q8NI35 1058-1167): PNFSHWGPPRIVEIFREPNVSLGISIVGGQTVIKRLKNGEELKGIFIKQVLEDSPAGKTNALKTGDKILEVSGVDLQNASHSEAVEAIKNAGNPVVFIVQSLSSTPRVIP
TJP1_2, Q07157, sequence (Q07157 181-274): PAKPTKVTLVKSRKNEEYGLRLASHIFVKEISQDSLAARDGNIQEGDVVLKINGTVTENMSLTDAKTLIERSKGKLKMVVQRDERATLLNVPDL
DLG1_2, Q12959, sequence (Q12959 314-412): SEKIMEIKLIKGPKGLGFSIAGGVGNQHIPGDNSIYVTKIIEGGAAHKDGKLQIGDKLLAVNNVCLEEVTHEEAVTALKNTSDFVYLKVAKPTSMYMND
MAGI2_5, Q86UL8, sequence (Q86UL8 915-1017): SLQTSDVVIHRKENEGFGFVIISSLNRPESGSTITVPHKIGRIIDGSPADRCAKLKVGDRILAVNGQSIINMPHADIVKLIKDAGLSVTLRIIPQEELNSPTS
TJP1_3, Q07157, sequence (Q07157 416-512): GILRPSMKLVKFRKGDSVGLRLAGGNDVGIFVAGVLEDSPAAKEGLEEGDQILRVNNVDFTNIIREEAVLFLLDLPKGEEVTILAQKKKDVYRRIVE
FRMPD3, Q5JV73, sequence (Q5JV73 12-100): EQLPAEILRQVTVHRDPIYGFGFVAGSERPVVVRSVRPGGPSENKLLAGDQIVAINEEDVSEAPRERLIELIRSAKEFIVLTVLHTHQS
Inadl_9, Q8NI35, sequence (Q8NI35 1530-1615): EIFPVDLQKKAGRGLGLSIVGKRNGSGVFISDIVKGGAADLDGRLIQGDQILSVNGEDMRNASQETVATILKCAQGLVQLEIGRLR

With GRLLGLETNV [ARHGEF26, Q96DR7] the pKd (FRMPD1, Q5SYB0; [1]) was “below the threshold”, the pKd (MAGI2_5, Q86UL8; [1]) was “below the threshold” and the pKd (FRMPD3, Q5JV73; [1]) was “below the threshold”. For the same binder, the pKd (DLG4_1, P78352; [1]) was 4.68, the pKd (PCLO, Q9Y6V0; [1]) was “below the threshold” and the pKd (DLG1_2, Q12959; [1]) was 5.18. The pKd (ARHGEF12, Q9NZN5-2; [1]) was “below the threshold”, the pKd (MPP7, Q5T2T1; [1]) was “below the threshold” and the pKd (PARD3_3, Q8TEW0; [1]) was “below the threshold”. The pKd (TJP2_1, Q9UDY2; [1]) was “below the threshold”, the pKd (GORASP2, Q9H8Y8; [1]) was 3.97 and the pKd (RAPGEF6, Q8TEU7; [1]) was “below the threshold”. The pKd (Inadl_5, Q8NI35; [1]) was “below the threshold”, the pKd (Inadl_4, Q8NI35; [1]) was “below the threshold” and the pKd (GRIP2_3, Q9C0E4; [1]) was “below the threshold”. The pKd (TJP1_3, Q07157; [1]) was “below the threshold”, the pKd (GRIP1_7, Q9Y3R0; [1]) was 4.11 and the pKd (Inadl_9, Q8NI35; [1]) was “below the threshold”. For the same binder, the pKd (GOPC, Q9HD26; [1]) was “below the threshold”, the pKd (TJP1_2, Q07157; [1]) was “below the threshold” and the pKd (LRRC7, Q96NW7; [1]) was “below the threshold”. The pKd (MAGI1_2, Q96QZ7; [1]) was 3.65, the pKd (MPDZ_5, O75970; [1]) was “below the threshold” and the pKd (GRIP1_3, Q9Y3R0; [1]) was “below the threshold”. For the same binder, the pKd (Inadl_6, Q8NI35; [1]) was “below the threshold”, the pKd (DLG3_2, Q92796; [1]) was 4.97 and the pKd (DLG2_2, Q15700; [1]) was 4.88. For the same binder, the pKd (LAP2, Q96RT1; [1]) was 4.41.

With QRPYRRESEI [KCNJ12, Q14500] the pKd (FRMPD1, Q5SYB0; [1]) was “below the threshold”, the pKd (MAGI2_5, Q86UL8; [1]) was “below the threshold” and the pKd (FRMPD3, Q5JV73; [1]) was “below the threshold”. For the same binder, the pKd (DLG4_1, P78352; [1]) was 4.22, the pKd (PCLO, Q9Y6V0; [1]) was “below the threshold” and the pKd (DLG1_2, Q12959; [1]) was 4.61. The pKd (ARHGEF12, Q9NZN5-2; [1]) was 3.65, the pKd (MPP7, Q5T2T1; [1]) was “below the threshold” and the pKd (PARD3_3, Q8TEW0; [1]) was “below the threshold”. The pKd (TJP2_1, Q9UDY2; [1]) was “below the threshold”, the pKd (GORASP2, Q9H8Y8; [1]) was 3.74 and the pKd (RAPGEF6, Q8TEU7; [1]) was “below the threshold”. For the same binder, the pKd (Inadl_5, Q8NI35; [1]) was “below the threshold”, the pKd (Inadl_4, Q8NI35; [1]) was “below the threshold” and the pKd (GRIP2_3, Q9C0E4; [1]) was “below the threshold”. The pKd (TJP1_3, Q07157; [1]) was “below the threshold”, the pKd (GRIP1_7, Q9Y3R0; [1]) was “below the threshold” and the pKd (Inadl_9, Q8NI35; [1]) was “below the threshold”. The pKd (GOPC, Q9HD26; [1]) was “below the threshold”, the pKd (TJP1_2, Q07157; [1]) was “below the threshold” and the pKd (LRRC7, Q96NW7; [1]) was “below the threshold”. For the same binder, the pKd (MAGI1_2, Q96QZ7; [1]) was 4, the pKd (MPDZ_5, O75970; [1]) was “below the threshold” and the pKd (GRIP1_3, Q9Y3R0; [1]) was 3.51. For the same binder, the pKd (Inadl_6, Q8NI35; [1]) was “below the threshold”, the pKd (DLG3_2, Q92796; [1]) was 4.28 and the pKd (DLG2_2, Q15700; [1]) was 3.96. For the same binder, the pKd (LAP2, Q96RT1; [1]) was “below the threshold”.

For NPDALPETLV [ARHGAP6, O43182], the pKd (FRMPD1, Q5SYB0; [1]) was “below the threshold”, the pKd (MAGI2_5, Q86UL8; [1]) was 4.45 and the pKd (FRMPD3, Q5JV73; [1]) was “below the threshold”. For the same binder, the pKd (DLG4_1, P78352; [1]) was 4.13, the pKd (PCLO, Q9Y6V0; [1]) was “below the threshold” and the pKd (DLG1_2, Q12959; [1]) was 4.49. For the same binder, the pKd (ARHGEF12, Q9NZN5-2; [1]) was 3.85, the pKd (MPP7, Q5T2T1; [1]) was “below the threshold” and the pKd (PARD3_3, Q8TEW0; [1]) was 3.85. For the same binder, the pKd (TJP2_1, Q9UDY2; [1]) was “below the threshold”, the pKd (GORASP2, Q9H8Y8; [1]) was “below the threshold” and the pKd (RAPGEF6, Q8TEU7; [1]) was “below the threshold”. For the same binder, the pKd (Inadl_5, Q8NI35; [1]) was “below the threshold”, the pKd (Inadl_4, Q8NI35; [1]) was “below the threshold” and the pKd (GRIP2_3, Q9C0E4; [1]) was “below the threshold”. The pKd (TJP1_3, Q07157; [1]) was “below the threshold”, the pKd (GRIP1_7, Q9Y3R0; [1]) was 3.61 and the pKd (Inadl_9, Q8NI35; [1]) was 3.98. The pKd (GOPC, Q9HD26; [1]) was 4.14, the pKd (TJP1_2, Q07157; [1]) was “below the threshold” and the pKd (LRRC7, Q96NW7; [1]) was “below the threshold”. The pKd (MAGI1_2, Q96QZ7; [1]) was “below the threshold”, the pKd (MPDZ_5, O75970; [1]) was “below the threshold” and the pKd (GRIP1_3, Q9Y3R0; [1]) was “below the threshold”. The pKd (Inadl_6, Q8NI35; [1]) was 4.3, the pKd (DLG3_2, Q92796; [1]) was 4.18 and the pKd (DLG2_2, Q15700; [1]) was 4.23. The pKd (LAP2, Q96RT1; [1]) was 3.8.

In the case of AKPQPVDSWV [ARVCF, O00192], the pKd (FRMPD1, Q5SYB0; [2]) is reported as “below the threshold”, the pKd (MAGI2_5, Q86UL8; [2]) is reported as “below the threshold” and the pKd (FRMPD3, Q5JV73; [2]) is reported as “below the threshold”. The pKd (DLG4_1, P78352; [2]) was 4.2, the pKd (PCLO, Q9Y6V0; [2]) was “below the threshold” and the pKd (DLG1_2, Q12959; [2]) was 4.75. For the same binder, the pKd (ARHGEF12, Q9NZN5-2; [2]) was “below the threshold”, the pKd (MPP7, Q5T2T1; [2]) was “below the threshold” and the pKd (PARD3_3, Q8TEW0; [2]) was 4.05. The pKd (TJP2_1, Q9UDY2; [2]) was 4.77, the pKd (GORASP2, Q9H8Y8; [2]) was 4.51 and the pKd (RAPGEF6, Q8TEU7; [2]) was “below the threshold”. For the same binder, the pKd (Inadl_5, Q8NI35; [2]) was “below the threshold”, the pKd (Inadl_4, Q8NI35; [2]) was “below the threshold” and the pKd (GRIP2_3, Q9C0E4; [2]) was “below the threshold”. For the same binder, the pKd (TJP1_3, Q07157; [2]) was 3.62, the pKd (GRIP1_7, Q9Y3R0; [2]) was “below the threshold” and the pKd (Inadl_9, Q8NI35; [2]) was 3.74. For the same binder, the pKd (GOPC, Q9HD26; [2]) was “below the threshold”, the pKd (TJP1_2, Q07157; [2]) was “below the threshold” and the pKd (LRRC7, Q96NW7; [2]) was 4.94. The pKd (MAGI1_2, Q96QZ7; [2]) was “below the threshold”, the pKd (MPDZ_5, O75970; [2]) was “below the threshold” and the pKd (GRIP1_3, Q9Y3R0; [2]) was “below the threshold”. For the same binder, the pKd (Inadl_6, Q8NI35; [2]) was 4.33, the pKd (DLG3_2, Q92796; [2]) was 4.49 and the pKd (DLG2_2, Q15700; [2]) was “below the threshold”. The pKd (LAP2, Q96RT1; [2]) was 5.73.
